Assay results: the DeepSol protein solubility set

Assay: soluble on expression in E. coli; label from the status in PepcDB or PDB records

Sequence	soluble on expression in E. coli
MGKHEKGSSKDLANRTKSKGLQKLKFFCQMCQKQCRDANGFKCHLTSEAHQRQLLLFAENSNSYLRQFSNDFEKNFMQLLRTSYGTKRVRANEVYNAFIKDKGHVHMNSTVWHSLTGFVQYLGSSGKCKIDEGDKGWYIAYIDQEALIRKEEDQRKQQQEKDDEERHMQIMDGMVQRGKELAGDDEHEYEATELIRDTPDQKIQLDLNLGILDRKLDVKSGVASAKISIFDMPKVKKEDPDEPGPSQPSRKSGKKRSRSRSPAAKKFSKKSALDEIKEMEERKKERKNRKDYWMREGIVVKVITKSLGSEYYKAKGVVRKVVDDYTAQVKLDDGTVVKLDQEHVETVIPSLGRQMMIVNGAYRGQEATLESIDEKRFSLRLKIASGPTRGRQIDVPYEDASKLA	not soluble
MLRIAYRLLWRALLPFALLRLWWRGRKEPGYRQHVGERLGFYRPRANPDHPLLWVHAVSVGETRAAQPLIDALLARFPQHDVLLTHMTPTGRRTGAEFAAQRNGRVIQAYLPYDLAGAVDRFLRHFQPRLGLLMETEIWPVLIERAHHAGVPMVLVNGRLSERSHRRTARLGQAARETYAQLAAVLAQTPDDADRYRSLGVPRVRVTGNLKFDITPHVDQIMMGRALRDALGGRAVWVAASTREGEEPLLLDAWHAHRAQHAGRRHPLLILVPRHPQRFDEVAQLAGLKGLRVARRSALSLSAAEAPDAAGVLDADILLGDSMGEMALYYAAAQAAFIGGSLLPMGGQNLIEACAVGTPVVIGPHTFNFAQATRDAVAAGACVQVEDAACAVRVIDQWLSDADAREAASRAALAFAATHGGATARTVEAVASLVLPSLLEHHHHHH	not soluble
MGSDKIHHHHHHIETYNPAEVTFPENVAKVLIVNNAVPQPEDAGYEYTLQGERQDTCKAKADSALFDACRTLGEAIVEASYFNDVLLYHDAVRKDNQAFLDTKLTQGQVASLCDETGADAVISIDRLLFDMKKSVGTLGEGYVMGMIDVQMAGVIRSYVPDREAPLATVHMKDSIYWAESADYMPILDKVLPSPENALRGAGKYFGAKVYANFVPHWEKETRWYFTGMGSRWKEASAYAANEKWDMAEDRWSGLYRGTENWKSRAKAASNLALCHEMRGALKEAYEWAHKSYDLFKRNNGDNDKSTKLLELYVQALAERIRSDKKLNVQFGED	not soluble
MMSRVTCSHMSFQTAIRPAESVDIADIRRVARATWHTVYDDILGAETVEEHLKEGYTPPLLEQMIELDEVGLFVSTADDDVVAYMSCGMTDATGFGDLDLYVHPDYWGEGIGTELLHRGEQHLHDLSVRKIRDEVLAENEVGNAFYRAHFEKVGQRTAKVGGQEHPVNVYERRL	not soluble
MSLTESARIDGVSLYEIVIPMKIPFQISSGTCYTRRSLVVEIREGDLFGYGESAPFEEPFYLGETLETTKVILKNHLLPMILGKEPLSIEEFNHLIKNGIRGNHFARCGVENAYWDLIAKKNKISLKAMIEKKMKNLGVKQEYLASNNYIESGAALGIPEDGRIETLIHQVEESLQEGYRRIKIKIKPGWDVEPLQETRRAVGDHFPLWTDANSSFELDQWETFKAMDAAKCLFHEQPLHYEALLDLKELGERIETPICLDESLISSRVAEFVAKLGISNIWNIKIQRVGGLLEAIKIYKIATDNGIKLWGGTMPESGLGARFLISLASFRGFVFPADVAASEKWYGKGNDLVENTMTDGKIYVPDEPGASFDMTLSHLEALGKKIWESQRGEGHHHHHH	soluble
MRFVPSYLIGFITLYLKGKVMLSIFDIYKIGVGPSSSHTNGPMIAGYRFVQQLLPQLNKVARIQVDLYGSLSLTGKGHHTDRATLLGLMGNQPATIKIGDANQTLREALQTGKLRLNGQHDIAFDYHQDLLFHQDNLPLHENGMTLSAFDTQGQQIDFETYYSVGGGFVATAEQLQNGT	not soluble
MNMPMTERIRAGKLFTDMCEGLPEKRLRGKTLMYEFNHSHPSEVEKRESLIKEMFATVGENAWVEPPVYFSYGSNIHIGRNFYANFNLTIVDDYTVTIGDNVLIAPNVTLSVTGHPVHHELRKNGEMYSFPITIGNNVWIGSHVVINPGVTIGDNSVIGAGSIVTKDIPPNVVAAGVPCRVIREINDRDKHYYFKDYKVESSV	soluble
MYLINQNGWIEVICGSMFSGKSEELIRRVRRTQFAKQHAIVFKPCIDNRYSEEDVVSHNGLKVKAVPVSASKDIFEHITEELDVIAIDEVQFFDGDIVEVVQVLANRGYRVIVAGLDQDFRGLPFGQVPQLMAIAEHVTKLQAVCSVCGSPASRTQRLIDGEPAAFDDPIILVGASESYEPRCRHCHAVPANKDK	not soluble
MQTGRQQNKGTIFASLNMSRKNRHNVLPRATMLRKKAIQIRLNEAEHKAVETYCSRFKVENRSRWIRETLMKEVIHRLESDTPLLFREEEMR	not soluble
MASGILVNVKEEVTCPICLELLTQPLSLDCGHSFCQACLTANHKKSMLDKGESSCPVCRISYQPENIRPNRHVANIVEKLREVKLSPEGQKVDHCARHGEKLLLFCQEDGKVICWLCERSQEHRGHHTFLTEEVAREYQVKLQAALEMLRQKQQEAEELEADIREEKASWKTQIQYDKTNVLADFEQLRDILDWEESNELQNLEKEEEDILKSLTNSETEMVQQTQSLRELISDLEHRLQGSVMELLQGVDGVIKRTENVTLKKPETFPKNQRRVFRAPDLKGMLEVFRELTDVRRYWGKEKSHYHKPPCGLSLLLSLSFRILCSLLGSCFKIYDSPSKTHITYPSL	soluble
MAGDPMREITDIAVAESGDSDFKERLETKNAKSWLKSVSAFANGIGGTLYFGVEDRTRRIIGVQDIQLTISKITELIVARITPRPVFECIPLQQKGKDILAVRVDSGKHTPFYYVHDHHHTAYIRMGDESVPATDYQLNELILKGRNETYDSQITEKLRTDYSFTLLEATYLHTLNQHMSDSDYVSFGLAVEDGRLTNAGLLFADQCPLPDSRVFCTRWNGLQRGSVHEDATDDAEYSGNLIYLLKSATEFIRRNTRKGWTKTANGRVEKPDYAERAYFEGVVNALIHRTYDFRGTEVHVEMYDDRLVISSPGGIYGGGELEPMSDGSYISKRRNPILADIFSRLRYMERRGSGIKKIFEATKNLYGYTEEKKPFFLVNKQNDFFLTIPNVNYRSESVTTHDTIHDTIHDTIHDTIHDKIALLLSFCQTPRSREEMMEFVGLRNRDHFQKKYLRPLLEQEKIEMTIPEKPQSKNQKYRTKEVVKLEHHHHHH	soluble
SGRHERDAFDTLFDHAPDKLNVVKKTLITFVNKHLNKLNLEVTELETQFADGVYLVLLMGLLEGYFVPLHSFFLTPDSFEQKVLNVSFAFELMQDGGLEKPKPRPEDIVNCDLKSTLRVLYNLFTKYRNVE	soluble
MFDPKKFIDEAVEEIKQQISDRKAIIALSGGVDSSVAAVLTHKAIGDKLTAVFVDTGLMRKGEREEVEKTFRDKLGLNLIVVDAKDRFLNALKGVTDPEEKRKIIGKLFIDVFEEIAEDIKAEVLVQGTIAPDWIETQGKIKSHHNVALPHGMVLEVVEPLRELYKDEVRLLAKELGLPDSIVYRQPFPGPGLAVRVLGEVTEEKLNICREANAIVEEEVKKANLDKDLWQYFAVVLDCKATGVKGDEREYNWIVALRMVKSLDAMTAHVPEIPFDLLKRISKRITSEIPNVARVVFDITDKPPATIEFE	soluble
FMDELVSLTYRSRVRLADPVADIVQIMRASRVRNLRLGITGILLYNGVHFVQTIEGPRSACDELFRLISADPRHQEILAFDLEPITARRFPDWSMRIVSRKELRALAPDLERLDLSGPEDVAELHRTIAASLSRGDA	soluble
MSLSEDLRFFEFFAGGGMARAGLGNQWQCLFANDMDRIKASTYIQNWGKDHFDSRDIREVNSEDLERNGDLAWASFPCQDLSVAGNGLGIGSSSAKDFTRSGALWPFLDLIDTLRQEERQPPLLVLENVVGLLTLEGGRDFAAICERLGEIGYRYGAVIIDAKHFLPQSRPRVFIIAVQRNIDIPCKLSRGMATANWHTPTLLRAYKSLTPILHADWVWWELGDAPILQENALESFIQREGVLWNTPEETKRIISMMAPAHLARLENAKCAGGVAVGSLYLRMRREGGINKQRAEITFSPLLGCLRTPRGGASRPRIIVVESGHVRTRLLTICEAARLMGLANTYILPEIYHHAFKVIGDGVAVPAVRFLAERLLEPLAIAARGQIAIPHEKAFMAEGHHHHHH	soluble
MPLMRAIGVIRKSRGERWSREEFEELLRSAGYEILAIVEQVREEHPRYNIGPGKLEEVKKLVKELKPDKVIFANRLTPSQAYNLWKELRVDIIDKWQLVLEIFEKRAHSKEAKLQVELANLQYELPLVKEAIRRIKMGDRAGFKGMGEYQVHQYLKHIKYRMGRIKGELEKIRAEREIRRKKREEEGFVLIALAGYTNAGKSTLLNALTGEDIEAKNQMFTTLDTTTRRFKVKGKMLLVTDTVGFIDGLPPFIVEAFHSTLEEIVKADIIILVLDASEPWKEIRRKLFASLNVLRELKALDRPMIVALNKVDLISDEDAKEKELLVRETIDGRANTVGVARISAKLNQLEELYNLIEVALSRLPKFQTFEIRVKDPSKLGKVLSMVHSMGDLLEVEYSEETKIKAYIQTGLIRELTKLGVSLKRISLEHHHHHH	not soluble
MPLALAQLQDIGDRITDRLRPWSRSAEFWVRAADIYTSYKVAPPDPVPLLHWLVCQLRAGFVKDEEEREAMWEQQHELGAQKMYSLCSELGGLFLKEAAQILGKPDLAPMAWVKRLVTLCDNAPATPIDVVRDVVEKQFGKSFDDIFECFDVEPVGSASIAQVHRARLKLSKTDVAVKVQHPGAEKLMMVDIRNMQAFALFLQKYDINFDLYSATKEMEKQICYEFDFVREAKAMERIREFLRVTNKKKPPVIVPRVIPEMVSREVLVMEFIEGTPIMNLGNEMAKRGIDPGGKIATMAKQKILTDLTLAYGQMILKDGFFHADPHPGNILICKNTEARLLFLFLFLAMVALLDYGQVKAMPEDLRLAYANLVIAMADDDFLRTKESFREIGIETWSIADNELEELFQLSLRMFDTRLPPGVTAMSPFAEDSSLNKVGVQNCLLNGVSILFFYLKSFPEELFSVLRTIQLLRGLTVGMGLRFSCAQQWKPIAEEALLKSGRLKDY	soluble
MHDALRAYIEKYASEKISDADFEEVKKAFTFKRYKKGQFLLQEGEVSKYTAFVLKGSMRQYSVDAKGTEHIIHFGIENWWVGDRESSTMLTPSNYNIDAIEDTEVLLTTSEDLQQLTAALPVIGKMVNTMNQRNFIASQKRIHDALSLTAEERYLELLKNHPDFLQRFPQTMLASYLGITAETYSRIRKKALK	not soluble
MHTILILGAGPAGAAVALGLRRLGYPVTLVSDWRRFPALEGVSLRVLEALRGAGLEQALAQALQPSQRRVAWNGAEHAQNIEYLLDRPAFDRGLREALREAQVKLIEGRVLGVQSSEAGHRVQVQGQGEVRGEFLVEARGRQAPVLDKALRQGGGKGLRGPETVSLLNRWQGPGGSATSAVHSLEDGWAWMARREDGQCYWQLTLDVESAGLPGKAQLLEYCRQRRLGSAMAREFFAGGQEQQLHLHARSSTAILNPQACGANWLRVGDAAMAVDPLSGNGIFQSLSSALQAPAVINTLLQQPQRAALAQRFHGQRVEQLFLRFARIGRDFYADEQRWPEQPFWQARRQWPDCQPAHIAVDFSALRIERAPVLRDGLVDEAEVVITPDQPLGIWHVQGVELAPLLRRLRSQGAAQALAQLSPDQNRLIRSWLLAQGYRPLEHHHHHH	not soluble
MGSDKIHHHHHHASNPVLRISDGWVADTIAPALIHYRFAGYDSISQAHQNVDVLEVDLTSPSYDIQLVYEEHGDSLSSVAERNNAAAAINGTYEAEASFIKIGGRLLAQNRLDSTHIRYWKHEGAFLFDDDNKNIDIRFASDSTFLSHPAANILSGAPMLIDNNDPVGLNFTGNVEGMDLNKLDYEDFRRHQGVRHPRTAVALTEHKKLLLITVDGRSTQAAGMSANELTRFLLTYFCPQSALNLDGGGSTTMWIASSEQRVGGVVNHPTDNKKFDHAGQRRVTSFIVIKSSENHE	not soluble
